Reference: patent US10472401B2, “Peptides and combination of peptides for use in immunotherapy against ovarian cancer and other cancers” (immatics biotechnologies GmbH, priority 2015, dated 2019)

target: HLA-A*02:01 (Homo sapiens, UniProt P04439, D140Y/D185E/D98H/E176V/E277Q/G131W/G231S/I119V/I121R/I166T/I218V/L300P/L318F/N151K/N90K/P208A/P217A/Q86G/Q94H/R138H/R169H/T345S); experiment: MHC binding assay (UV-ligand exchange, ELISA of stabilized MHC complexes); details: MHC class I binding score; binding to HLA-A*02:01 ranged by peptide exchange yield (UV-ligand exchange, ELISA)
In short: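 Binding scored as exchange yield, detected via β2m of stabilized complexes in an HRP/TMB ELISA read at 450 nm after streptavidin capture of 100-fold diluted monomers for 1 h at 37 °C. Complexes came from UV irradiation cleaving a photolabile peptide, exchanged for the candidate.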

Substance | Peptide exchange
364 (LLQNEQFEL; listed as Homo sapiens) [compound 364] | ″+++″ (≥50% = +++)
365 (YVIDQGETDVYV; listed as Homo sapiens) [compound 365] | ″+++″ (≥50% = +++)
366 (RLLDMGETDLML; listed as Homo sapiens) [compound 366] | ″+++″ (≥50% = +++)
367 (SLQNHNHQL; listed as Homo sapiens) [compound 367] | ″+++″ (≥50% = +++)
369 (GLFPEHLIDV; listed as Homo sapiens) [compound 369] | ″+++″ (≥50% = +++)
370 (SLLQDLVSV; listed as Homo sapiens) [compound 370] | ″+++″ (≥50% = +++)
371 (FLQAHLHTA; listed as Homo sapiens) [compound 371] | ″++++″ (≥75% = ++++)
372 (TMLLNIPLV; listed as Homo sapiens) [compound 372] | ″++″ (≥20% = ++)
373 (SLLEDKGLAEV; listed as Homo sapiens) [compound 373] | ″++″ (≥20% = ++)
374 (FLLQQHLISA; listed as Homo sapiens) [compound 374] | ″++″ (≥20% = ++)
375 (SLTETIEGV; listed as Homo sapiens) [compound 375] | ″++″ (≥20% = ++)
376 (AMFESSQNVLL; listed as Homo sapiens) [compound 376] | ″++″ (≥20% = ++)
377 (FLLDSSASV; listed as Homo sapiens) [compound 377] | ″++″ (≥20% = ++)
378 (ALGYFVPYV; listed as Homo sapiens) [compound 378] | ″+++″ (≥50% = +++)
379 (IMEGTLTRV; listed as Homo sapiens) [compound 379] | ″++″ (≥20% = ++)
380 (TLIEDEIATI; listed as Homo sapiens) [compound 380] | ″++″ (≥20% = ++)
381 (FIDEAYVEV; listed as Homo sapiens) [compound 381] | ″++″ (≥20% = ++)
382 (ALQNYIKEA; listed as Homo sapiens) [compound 382] | ″++″ (≥20% = ++)
383 (ALLELENSVTL; listed as Homo sapiens) [compound 383] | ″+++″ (≥50% = +++)

Substance | Peptide exchange
385 (SLLEQGLVEA; listed as Homo sapiens) [compound 385] | ″++″ (≥20% = ++)
386 (ILFRYPLTI; listed as Homo sapiens) [compound 386] | ″+++″ (≥50% = +++)
387 (ALFQATAEV; listed as Homo sapiens) [compound 387] | ″++++″ (≥75% = ++++)
388 (SLTIDGIRYV; listed as Homo sapiens) [compound 388] | ″+++″ (≥50% = +++)
389 (LLADVTHLL; listed as Homo sapiens) [compound 389] | ″++″ (≥20% = ++)
390 (ALFMKQIYL; listed as Homo sapiens) [compound 390] | ″+++″ (≥50% = +++)
391 (YVYPQRLNFV; listed as Homo sapiens) [compound 391] | ″+++″ (≥50% = +++)
392 (ALLHPQGFEV; listed as Homo sapiens) [compound 392] | ″++″ (≥20% = ++)
393 (GLLDTQTSQVLTA; listed as Homo sapiens) [compound 393] | ″++″ (≥20% = ++)
394 (LLAVIGGLVYL; listed as Homo sapiens) [compound 394] | ″+++″ (≥50% = +++)
395 (ALALGGIAVV; listed as Homo sapiens) [compound 395] | ″++++″ (≥75% = ++++)
396 (ALLPDLPAL; listed as Homo sapiens) [compound 396] | ″+++″ (≥50% = +++)
397 (YLFGERLLEC; listed as Homo sapiens) [compound 397] | ″+++″ (≥50% = +++)
398 (KLLEEDGTIITL; listed as Homo sapiens) [compound 398] | ″++″ (≥20% = ++)
399 (YLFEPLYHV; listed as Homo sapiens) [compound 399] | ″+++″ (≥50% = +++)
400 (SLLTEQDLWTV; listed as Homo sapiens) [compound 400] | ″++″ (≥20% = ++)
401 (ILLDDTGLAYI; listed as Homo sapiens) [compound 401] | ″+++″ (≥50% = +++)
402 (VLFSGALLGL; listed as Homo sapiens) [compound 402] | ″++″ (≥20% = ++)

The next lines start with the values.

Peptide exchange | Substance
″++″ (≥20% = ++) | 403 (KLYDRILRV; listed as Homo sapiens) [compound 403]
″++″ (≥20% = ++) | 405 (ALYDVFLEV; listed as Homo sapiens) [compound 405]
″+++″ (≥50% = +++) | 407 (YLMDLINFL; listed as Homo sapiens) [compound 407]
″++″ (≥20% = ++) | 408 (VLDDSIYLV; listed as Homo sapiens) [compound 408]
″++″ (≥20% = ++) | 409 (LLDAMNYHL; listed as Homo sapiens) [compound 409]
″++″ (≥20% = ++) | 412 (YLDDLNEGVYI; listed as Homo sapiens) [compound 412]
″+++″ (≥50% = +++) | 426 (RLADKSVLV; listed as Homo sapiens) [compound 426]
″+++″ (≥50% = +++) | 427 (ALLPLSPYL; listed as Homo sapiens) [compound 427]
″++″ (≥20% = ++) | 428 (KLGHTDILVGV; listed as Homo sapiens) [compound 428]
″++″ (≥20% = ++) | 429 (GLVNDLARV; listed as Homo sapiens) [compound 429]
″+++″ (≥50% = +++) | 430 (HLYSSIEHLTT; listed as Homo sapiens) [compound 430]
″++″ (≥20% = ++) | 431 (SLVNVVPKL; listed as Homo sapiens) [compound 431]
″++″ (≥20% = ++) | 432 (TLIEESAKV; listed as Homo sapiens) [compound 432]
″+++″ (≥50% = +++) | 433 (AMLNEPWAV; listed as Homo sapiens) [compound 433]
″++″ (≥20% = ++) | 434 (KVSNSGITRV; listed as Homo sapiens) [compound 434]
″+++″ (≥50% = +++) | 436 (HLAEVSAEV; listed as Homo sapiens) [compound 436]
″+++″ (≥50% = +++) | 437 (SMAPGLVIQAV; listed as Homo sapiens) [compound 437]
″++++″ (≥75% = ++++) | 438 (KLLPLAGLYL; listed as Homo sapiens) [compound 438]
″+++″ (≥50% = +++) | 439 (YLLQEIYGI; listed as Homo sapiens) [compound 439]
″++″ (≥20% = ++) | 440 (ALADGVTMQV; listed as Homo sapiens) [compound 440]

Peptide exchange | Substance
″+++″ (≥50% = +++) | 441 (ALLENPKMEL; listed as Homo sapiens) [compound 441]
″+++″ (≥50% = +++) | 442 (GLLGGGGVLGV; listed as Homo sapiens) [compound 442]
″+++″ (≥50% = +++) | 444 (GLLRDEALAEV; listed as Homo sapiens) [compound 444]
″+++″ (≥50% = +++) | 446 (QLIPALAKV; listed as Homo sapiens) [compound 446]
″++″ (≥20% = ++) | 447 (QLVPALAKV; listed as Homo sapiens) [compound 447]
″+++″ (≥50% = +++) | 448 (NLLETKLQL; listed as Homo sapiens) [compound 448]
″+++″ (≥50% = +++) | 449 (KLAEGLDIQL; listed as Homo sapiens) [compound 449]
″+++″ (≥50% = +++) | 450 (FMIDASVHPTL; listed as Homo sapiens) [compound 450]
″++″ (≥20% = ++) | 451 (LLLLDTVTMQV; listed as Homo sapiens) [compound 451]
″+++″ (≥50% = +++) | 452 (ILLEHGADPNL; listed as Homo sapiens) [compound 452]
″++″ (≥20% = ++) | 453 (KLLEATSAV; listed as Homo sapiens) [compound 453]
″+++″ (≥50% = +++) | 454 (KLPPPPPQA; listed as Homo sapiens) [compound 454]
″++″ (≥20% = ++) | 455 (SLLKEPQKVQL; listed as Homo sapiens) [compound 455]
″+++″ (≥50% = +++) | 456 (LLIGHLERV; listed as Homo sapiens) [compound 456]
″+++″ (≥50% = +++) | 457 (SLLPGNLVEKV; listed as Homo sapiens) [compound 457]
″++″ (≥20% = ++) | 458 (SLIDKLYNI; listed as Homo sapiens) [compound 458]
″++″ (≥20% = ++) | 459 (ALITEVVRL; listed as Homo sapiens) [compound 459]
″++″ (≥20% = ++) | 461 (VMFRTPLASV; listed as Homo sapiens) [compound 461]
″+++″ (≥50% = +++) | 462 (KLAKQPETV; listed as Homo sapiens) [compound 462]
″+++″ (≥50% = +++) | 463 (SLVESHLSDQLTL; listed as Homo sapiens) [compound 463]
